The source of these data is patent US20250281587A1 (ELANCO US, published 2025).

This test has as its target T1, recombinant mouse IL-1RI Fc chimera (R&D 771-MR-100) (mouse, UniProt P13504 20-338).
T1 construct: Coated on ELISA plates at 1 µg/ml; Used instead of canine or feline IL-1RI, which were not commercially available; also called IL-1RI receptor; Fc part of the bought chimera not given
T1 sequence (looked up): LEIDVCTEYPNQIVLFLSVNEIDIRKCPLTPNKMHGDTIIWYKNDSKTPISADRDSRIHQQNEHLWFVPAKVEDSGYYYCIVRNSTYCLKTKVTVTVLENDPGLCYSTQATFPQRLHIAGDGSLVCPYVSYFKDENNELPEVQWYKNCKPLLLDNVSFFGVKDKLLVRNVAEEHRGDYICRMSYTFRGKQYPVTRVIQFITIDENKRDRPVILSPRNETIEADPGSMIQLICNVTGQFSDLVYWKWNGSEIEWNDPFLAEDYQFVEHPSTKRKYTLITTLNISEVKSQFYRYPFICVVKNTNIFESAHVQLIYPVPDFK
Briefly: ELISA, mouse IL-1RI Fc chimera coated, detection with biotinylated anti-fIL-1β antibody.

B1: purified feline IL-1β wild type (ligand)
chain: MGSAAIQSQDYTFRDISQKSLVLSGSYELRALHLNGQNMNQQVVFRMSFVHGEENSKKIPVVLCIKKNNLYLSCVMKDGKPTLQLEMLDPKVYPKKKMEKRFVFNKTEIKGNVEFESSQFPNWYISTSQAEEMPVFLGNTKGGQDITDFIMESASTSHHHHHHGGCG
notes: also called purified wild type feline IL-1β; recombinant feline wild type IL-1β
As to B1, the binding result was “binds”.
